Measurements: EP2287285A2 (UAB RESEARCH FOUNDATION, dated 2011)

How the values were obtained:
[1] = biological target: T1, soluble TNFRI (soluble form of human TNFR1) (human, UniProt P19438 41-201, limits assumed); assay: Western blot, 0.5 µg of each protein
T1 construct: Provided by Amgen; an Fc part is therefore uncertain and not written; also called TNF receptor I
T1 sequence (looked up): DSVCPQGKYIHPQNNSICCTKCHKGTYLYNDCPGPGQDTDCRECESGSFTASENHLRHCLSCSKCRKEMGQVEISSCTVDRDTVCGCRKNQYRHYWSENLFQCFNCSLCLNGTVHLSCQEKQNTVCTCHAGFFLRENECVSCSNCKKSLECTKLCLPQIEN

[2] = biological target: T2, CD95/hIgG1 (soluble form of human Fas) (human, UniProt P25445 26-173, limits assumed); assay: Western blot, 0.5 µg of each protein
T2 construct: Provided by Amgen; also called Fas (CD95)
T2 sequence (looked up): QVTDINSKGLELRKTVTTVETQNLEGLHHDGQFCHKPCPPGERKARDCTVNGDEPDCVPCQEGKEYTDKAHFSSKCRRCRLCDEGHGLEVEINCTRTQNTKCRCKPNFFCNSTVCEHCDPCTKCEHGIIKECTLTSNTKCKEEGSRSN

[3] = biological target: T3, TRAIL-R3 (DcR-1)/hIgG1 fusion protein (human, UniProt O14798 26-236, limits assumed); assay: Western blot, 0.5 µg of each protein
T3 sequence (looked up): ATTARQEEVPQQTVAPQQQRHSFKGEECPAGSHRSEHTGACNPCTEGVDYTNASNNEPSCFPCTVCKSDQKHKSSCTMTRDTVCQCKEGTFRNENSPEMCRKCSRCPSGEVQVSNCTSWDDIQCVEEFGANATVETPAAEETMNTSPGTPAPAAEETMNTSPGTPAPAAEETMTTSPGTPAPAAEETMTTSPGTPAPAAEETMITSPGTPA

[4] = biological target: T4, TRAIL-R4 (DcR-2)/hIgG1 fusion protein (human, UniProt Q9UBN6 56-211, limits assumed); assay: Western blot, 0.5 µg of each protein
T4 sequence (looked up): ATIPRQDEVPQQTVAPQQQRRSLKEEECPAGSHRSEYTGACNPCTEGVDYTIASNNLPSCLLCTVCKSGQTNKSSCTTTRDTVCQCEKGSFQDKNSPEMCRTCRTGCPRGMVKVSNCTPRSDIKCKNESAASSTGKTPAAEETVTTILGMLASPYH

[5] = biological target: T5, human DR5, full length, on the cell surface (Cos-7 cells transfected with full-length human DR5 cDNA); human … (human, UniProt O14763 56-440); assay: radioisotope labeled TRA-8 on a breast cancer cell line in vitro
T5 construct: whole, on cells; also called cell surface DR5; human DR5 antigen

[6] = biological target: T6, human DR4, full length, on the cell surface (Cos-7 cells transfected with full-length DR4 cDNA); human cell … (human, UniProt O00220 24-468); assay: flow cytometry of transfected Cos-7 cells (Fig. 1c)
T6 construct: whole, on cells; also called cell surface DR4

[7] = biological target: T7, DR4/hIgG1 (TRAIL-R1) fusion protein (human, UniProt O00220 24-239, limits assumed); assay: ELISA on plates coated with 2 µg/ml DR4-Ig (Fig. 1b, middle panel)
T7 construct: also called DR4-Ig

[8] = biological target: T8, human DR5/hIgG1 fusion protein (immunogen); residues 1-180 of the extracellular portion of DR5 fused to the … (human, UniProt O14763 56-180); assay: ELISA on coated DR5-Ig, one-site binding model, non-linear regression
T8 construct: range 1-180; also called DR5-IgG; DR5-IgG1

[9] = biological target: T9, murine DR5/hIgG1 fusion protein (murine; human, UniProt Q9QZM4 53-180, limits assumed); assay: ELISA, absorbance 450 nm/650 nm (Fig. 1a, column 8 of lower panel)
T9 construct: also called murine homologue of DR5

[10] = biological target: T7, DR4/hIgG1 (TRAIL-R1) fusion protein; assay: ELISA on plates coated with 2 µg/ml DR4-Ig, HRP anti-Flag detection

B1: TRA-8 monoclonal anti-human DR5 antibody (mouse-mouse hybridoma TRA-8, ATCC PTA-1428) (antibody, mouse IgG1, kappa, V domains shown)
VH: EVMLVESGGGLVKPGGSLKLSCAASGFTFSSYVMSWVRQTPEKRLEWVATISSGGSYTYYPDSVKGRFTISRDNAKNTLYLQMSSLRSEDTAMYYCARRGDSMITTDYWGQGTTLTVSS
VL: DIVMTQSHKFMSTSVGDRVSITCKASQDVGTAVAWYQQKPGQSPKLLIYWASTRHTGVPDRFTGSGSGTDFTLTISNVQSEDLADYFCQQYSSYRTFGGGTKLEIKR
notes: also called anti-DR5 antibody (clone: TRA-8)
[1]
  binding result: no binding (tested: 1 µg/ml)
[2]
  binding result: no binding (tested: 1 µg/ml)
[3]
  binding result: no binding (tested: 1 µg/ml)
[4]
  binding result: no binding (tested: 1 µg/ml)
[5]
  Kd: 3 nM
[6]
  binding result: no binding
[7]
  binding result: no binding
[8]
  Kd: 3 nM
[9]
  binding result: no binding

B2: soluble recombinant human TRAIL (Alexis): extracellular domain of human TRAIL (aa residues 95 to 281) fused at the N-terminus to a FLAG-tag and an 8 amino acid … (ligand, UniProt P50591 95-281, looked up)
chain: TSEETISTVQEKQQNISPLVRERGPQRVAAHITGTRGRSNTLSSPNSKNEKALGRKINSWESSRSGHSFLSNLHLRNGELVIHEKGFYYIYSQTYFRFQEEIKENTKNDKQMVQYIYKYTSYPDPILLMKSARNSCWSKDAEYGLYSIYQGGIFELKENDRIFVSVTNEHLIDMDHEASFFGAFLVG
notes: range 95-281; Bought reagent; also called TRAIL-FLAG; soluble TRAIL; not shown: FLAG tag; 8 amino acid linker peptide
[10]
  binding result: binds
